The text below walks through data of patent US20210388087A1 (Chugai, published 2021).

T1: Human CD3eg linker (human)
T1 construct: Single chain: epsilon and gamma subunits of human CD3 joined by a 29-mer linker, Flag-tag at the C-terminus; also called recombinant human CD3
T1 chain: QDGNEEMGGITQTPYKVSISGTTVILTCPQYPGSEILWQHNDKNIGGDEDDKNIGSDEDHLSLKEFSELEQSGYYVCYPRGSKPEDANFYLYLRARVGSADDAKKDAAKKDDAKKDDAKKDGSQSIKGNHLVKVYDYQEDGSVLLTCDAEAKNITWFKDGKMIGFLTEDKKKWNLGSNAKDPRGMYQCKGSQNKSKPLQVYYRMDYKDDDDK

B1: H183/L072 VH F27L (antibody, name in Kabat numbering, V domains shown)
VH: QVQLVESGGGLVQPGRSLRLSCAASGLTFSNAWMHWVRQAPGKGLEWVAQIKDKGNAYAAYYAPSVKGRFTISRDDSKNSIYLQMNSLKTEDTAVYYCHYVHYASASTVLPAFGVDAWGQGTTVTVSS
VL: DIVMTQSPLSLPVTPGEPASISCQASQELVHMNRNTYLHWYQQKPGQAPRLLIYKVSNRFPGVPDRFSGSGSGTDFTLKISRVEAEDVGVYYCAQGTSVPFTFGQGTKLEIK
B2: H183/L072 VH F27S (antibody, name in Kabat numbering, V domains shown)
VH: QVQLVESGGGLVQPGRSLRLSCAASGSTFSNAWMHWVRQAPGKGLEWVAQIKDKGNAYAAYYAPSVKGRFTISRDDSKNSIYLQMNSLKTEDTAVYYCHYVHYASASTVLPAFGVDAWGQGTTVTVSS
VL: DIVMTQSPLSLPVTPGEPASISCQASQELVHMNRNTYLHWYQQKPGQAPRLLIYKVSNRFPGVPDRFSGSGSGTDFTLKISRVEAEDVGVYYCAQGTSVPFTFGQGTKLEIK
B3: H183/L072 VH F27M (antibody, name in Kabat numbering, V domains shown)
VH: QVQLVESGGGLVQPGRSLRLSCAASGMTFSNAWMHWVRQAPGKGLEWVAQIKDKGNAYAAYYAPSVKGRFTISRDDSKNSIYLQMNSLKTEDTAVYYCHYVHYASASTVLPAFGVDAWGQGTTVTVSS
VL: DIVMTQSPLSLPVTPGEPASISCQASQELVHMNRNTYLHWYQQKPGQAPRLLIYKVSNRFPGVPDRFSGSGSGTDFTLKISRVEAEDVGVYYCAQGTSVPFTFGQGTKLEIK
B4: H183/L072 VH F27W (antibody, name in Kabat numbering, V domains shown)
VH: QVQLVESGGGLVQPGRSLRLSCAASGWTFSNAWMHWVRQAPGKGLEWVAQIKDKGNAYAAYYAPSVKGRFTISRDDSKNSIYLQMNSLKTEDTAVYYCHYVHYASASTVLPAFGVDAWGQGTTVTVSS
VL: DIVMTQSPLSLPVTPGEPASISCQASQELVHMNRNTYLHWYQQKPGQAPRLLIYKVSNRFPGVPDRFSGSGSGTDFTLKISRVEAEDVGVYYCAQGTSVPFTFGQGTKLEIK
B5: H183/L072 VH F27P (antibody, name in Kabat numbering, V domains shown)
VH: QVQLVESGGGLVQPGRSLRLSCAASGPTFSNAWMHWVRQAPGKGLEWVAQIKDKGNAYAAYYAPSVKGRFTISRDDSKNSIYLQMNSLKTEDTAVYYCHYVHYASASTVLPAFGVDAWGQGTTVTVSS
VL: DIVMTQSPLSLPVTPGEPASISCQASQELVHMNRNTYLHWYQQKPGQAPRLLIYKVSNRFPGVPDRFSGSGSGTDFTLKISRVEAEDVGVYYCAQGTSVPFTFGQGTKLEIK
B6: H183/L072 VH F29D (antibody, name in Kabat numbering, V domains shown)
VH: QVQLVESGGGLVQPGRSLRLSCAASGFTDSNAWMHWVRQAPGKGLEWVAQIKDKGNAYAAYYAPSVKGRFTISRDDSKNSIYLQMNSLKTEDTAVYYCHYVHYASASTVLPAFGVDAWGQGTTVTVSS
VL: DIVMTQSPLSLPVTPGEPASISCQASQELVHMNRNTYLHWYQQKPGQAPRLLIYKVSNRFPGVPDRFSGSGSGTDFTLKISRVEAEDVGVYYCAQGTSVPFTFGQGTKLEIK
B7: H183/L072 VH F27T (antibody, name in Kabat numbering, V domains shown)
VH: QVQLVESGGGLVQPGRSLRLSCAASGTTFSNAWMHWVRQAPGKGLEWVAQIKDKGNAYAAYYAPSVKGRFTISRDDSKNSIYLQMNSLKTEDTAVYYCHYVHYASASTVLPAFGVDAWGQGTTVTVSS
VL: DIVMTQSPLSLPVTPGEPASISCQASQELVHMNRNTYLHWYQQKPGQAPRLLIYKVSNRFPGVPDRFSGSGSGTDFTLKISRVEAEDVGVYYCAQGTSVPFTFGQGTKLEIK
B8: H183/L072 VH F29A (antibody, name in Kabat numbering, V domains shown)
VH: QVQLVESGGGLVQPGRSLRLSCAASGFTASNAWMHWVRQAPGKGLEWVAQIKDKGNAYAAYYAPSVKGRFTISRDDSKNSIYLQMNSLKTEDTAVYYCHYVHYASASTVLPAFGVDAWGQGTTVTVSS
VL: DIVMTQSPLSLPVTPGEPASISCQASQELVHMNRNTYLHWYQQKPGQAPRLLIYKVSNRFPGVPDRFSGSGSGTDFTLKISRVEAEDVGVYYCAQGTSVPFTFGQGTKLEIK
B9: H183/L072 VH F29E (antibody, name in Kabat numbering, V domains shown)
VH: QVQLVESGGGLVQPGRSLRLSCAASGFTESNAWMHWVRQAPGKGLEWVAQIKDKGNAYAAYYAPSVKGRFTISRDDSKNSIYLQMNSLKTEDTAVYYCHYVHYASASTVLPAFGVDAWGQGTTVTVSS
VL: DIVMTQSPLSLPVTPGEPASISCQASQELVHMNRNTYLHWYQQKPGQAPRLLIYKVSNRFPGVPDRFSGSGSGTDFTLKISRVEAEDVGVYYCAQGTSVPFTFGQGTKLEIK
B10: H183/L072 VH F27Y (antibody, name in Kabat numbering, V domains shown)
VH: QVQLVESGGGLVQPGRSLRLSCAASGYTFSNAWMHWVRQAPGKGLEWVAQIKDKGNAYAAYYAPSVKGRFTISRDDSKNSIYLQMNSLKTEDTAVYYCHYVHYASASTVLPAFGVDAWGQGTTVTVSS
VL: DIVMTQSPLSLPVTPGEPASISCQASQELVHMNRNTYLHWYQQKPGQAPRLLIYKVSNRFPGVPDRFSGSGSGTDFTLKISRVEAEDVGVYYCAQGTSVPFTFGQGTKLEIK
B11: H183/L072 VH F27N (antibody, name in Kabat numbering, V domains shown)
VH: QVQLVESGGGLVQPGRSLRLSCAASGNTFSNAWMHWVRQAPGKGLEWVAQIKDKGNAYAAYYAPSVKGRFTISRDDSKNSIYLQMNSLKTEDTAVYYCHYVHYASASTVLPAFGVDAWGQGTTVTVSS
VL: DIVMTQSPLSLPVTPGEPASISCQASQELVHMNRNTYLHWYQQKPGQAPRLLIYKVSNRFPGVPDRFSGSGSGTDFTLKISRVEAEDVGVYYCAQGTSVPFTFGQGTKLEIK
B12: H183/L072 VH F27Q (antibody, name in Kabat numbering, V domains shown)
VH: QVQLVESGGGLVQPGRSLRLSCAASGQTFSNAWMHWVRQAPGKGLEWVAQIKDKGNAYAAYYAPSVKGRFTISRDDSKNSIYLQMNSLKTEDTAVYYCHYVHYASASTVLPAFGVDAWGQGTTVTVSS
VL: DIVMTQSPLSLPVTPGEPASISCQASQELVHMNRNTYLHWYQQKPGQAPRLLIYKVSNRFPGVPDRFSGSGSGTDFTLKISRVEAEDVGVYYCAQGTSVPFTFGQGTKLEIK
B13: H183/L072 VH F27V (antibody, name in Kabat numbering, V domains shown)
VH: QVQLVESGGGLVQPGRSLRLSCAASGVTFSNAWMHWVRQAPGKGLEWVAQIKDKGNAYAAYYAPSVKGRFTISRDDSKNSIYLQMNSLKTEDTAVYYCHYVHYASASTVLPAFGVDAWGQGTTVTVSS
VL: DIVMTQSPLSLPVTPGEPASISCQASQELVHMNRNTYLHWYQQKPGQAPRLLIYKVSNRFPGVPDRFSGSGSGTDFTLKISRVEAEDVGVYYCAQGTSVPFTFGQGTKLEIK
B14: H183/L072 VH F27R (antibody, name in Kabat numbering, V domains shown)
VH: QVQLVESGGGLVQPGRSLRLSCAASGRTFSNAWMHWVRQAPGKGLEWVAQIKDKGNAYAAYYAPSVKGRFTISRDDSKNSIYLQMNSLKTEDTAVYYCHYVHYASASTVLPAFGVDAWGQGTTVTVSS
VL: DIVMTQSPLSLPVTPGEPASISCQASQELVHMNRNTYLHWYQQKPGQAPRLLIYKVSNRFPGVPDRFSGSGSGTDFTLKISRVEAEDVGVYYCAQGTSVPFTFGQGTKLEIK

This assay deals with T1, Human CD3eg linker. In words: Biacore SPR, vs template H183/L072.
In the case of B1, the “fold change of affinity” value came out at 0.4 fold. Then B2, with 0 fold.

Consider B3, for which the “fold change of affinity” value turned out to be 0.5 fold. On to B4, for which the “fold change of affinity” value was found to be 0 fold. Then B5, with 0 fold; and B6, with 0 fold; and B7, with 0 fold. Then B8, with 0.2 fold; and B9, with 0.1 fold; and B10, with 0 fold.

In the case of B11, the “fold change of affinity” value came out at 0.4 fold. With B12, the “fold change of affinity” value was found to be 0 fold. Then B13, with 0.3 fold. Then B14, with 0.2 fold.
